In patent US20250304628A1:

What was measured:
IgG [1] = assay: dynamic binding capacity at 10% breakthrough; ligand coupled to agarose medium; after 24 h of 1 M NaOH treatment (2 h cycles)
IgG [2] = assay: dynamic binding capacity at 10% breakthrough; ligand coupled to agarose medium, IgG 1 mg/ml loaded, before alkali treatment
IgG [3] = assay: dynamic binding capacity at 10% breakthrough; ligand coupled to agarose medium; after 24 h of 1 M NaOH treatment, relative to initial capacity
IgG [4] = assay: SPR, Biacore 4000; IgG immobilised on CM5 chip, mutant as analyte

Row | Substance | Remaining IgG capacity after 24 hours (dynamic binding capacity at 10% breakthrough) (IgG [1]) [mg/mL] | Initial IgG capability (dynamic binding capacity at 10% breakthrough) (IgG [2]) [mg/mL] | Remaining IgG capacity after 24 hours (% of initial) (IgG [3]) [%] | Kd (IgG [4]) [nM]
1 | Z(Q9F)4 (designed binder) | 37.2 | 182 | 20.4 | 1.74
2 | Z(N3L, Q9I, E15L, N23V)4 (designed binder) | 42.1 | 166 | 25.4 | 4.41
3 | Z(Q9M)4 (designed binder) | 42.6 | 136 | 31.5 | 2.46
4 | Z(N3L, N6E, Q9F, E15L, N23I)4 (designed binder) | 65 | 148 | 44 | 
5 | Z(E15Y)4 (designed binder) | 48.6 | 174 | 28 | 2.92
6 | Z(N3L, N6L, Q9F, E15I, N23V)6 (designed binder) | 112 | 175 | 63.9 | 
7 | Z(N3V, N6L, Q9I, E15V, N23Y)6 (designed binder) | 103 | 190 | 54.2 | 
8 | Z(E15T)4 (designed binder) | 45.5 | 176 | 25.9 | 4.71
9 | Z(E15F)4 (designed binder) | 35.5 | 155 | 22.8 | 3.99
10 | Z(E15I)4 (designed binder) | 33 | 187 | 17.7 | 2.55
11 | Z(E15W)4 (designed binder) | 38.1 | 165 | 23.2 | 1.54
12 | Z(E15V)4 (designed binder) | 33.2 | 133 | 24.9 | 2.66
13 | Z(N3L, N6L, Q9I, E15L)4 (designed binder) | 70.2 | 179 | 39.2 | 2.09
14 | Z(N3L, N6E, Q9I, E15I, N23I)6 (designed binder) | 87.8 | 149 | 58.8 | 
15 | Z(E15D)4 (designed binder) | 21.6 | 145 | 14.9 | 1.13
16 | Z(Q9I)4 (designed binder) | 39.6 | 143 | 27.6 | 
17 | Z(N3L, N6E, Q9I, E15I, N23I)4 (designed binder) | 57.2 | 161 | 35.4 | 2.57
18 | Z(E15L)4 (designed binder) | 63 | 157 | 40.1 | 1.25
19 | Z(N3L, N6L, Q9I, E15L, N23V)4 (designed binder) | 45.3 | 159 | 28.5 | 2.33
20 | Z(N3V, N6L, Q9F, E15V, N23Y)4 (designed binder) | 67.9 | 169 | 40.1 | 2.76
21 | Z(N6L, Q9F, E15I, N23V)4 (designed binder) | 68.2 | 186 | 36.7 | 3.98
22 | Z(N3L, N6L, Q9F, E15I, N23V)4 (designed binder) | 68.4 | 151 | 45.2 | 
23 | Z(N3V, N6E, Q9I, E15L)4 (designed binder) | 110 | 177 | 62.2 | 2.72
24 | Z(E15S)4 (designed binder) | 72 | 165 | 43.6 | 1.78
